In this assay the target is T1, human folate receptor β (FRβ) (human, UniProt P14207 23-230).
T1 construct: Expressed on mouse B300-19 cells from cDNA cloned from human rheumatoid synovial membrane; also called human FRβ
The assay can be described thus: hybridoma antibodies selected by reactivity with FRβ-expressing cells (human FRβ on mouse B300-19 cells); reactivity analysed by flow cytometry.

The results in this text go back to patent publication US20140010756A1 (KAGOSHIMA UNIVERSITY, published 2014).

T1 sequence (P14207 23-230 S117T limits assumed): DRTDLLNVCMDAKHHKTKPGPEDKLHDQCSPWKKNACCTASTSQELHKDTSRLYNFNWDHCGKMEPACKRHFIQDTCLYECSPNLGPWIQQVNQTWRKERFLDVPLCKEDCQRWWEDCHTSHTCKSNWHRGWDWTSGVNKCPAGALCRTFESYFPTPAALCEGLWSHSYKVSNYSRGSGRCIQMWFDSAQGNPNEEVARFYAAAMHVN

B1: anti-human FRβ mouse monoclonal antibody 36b (antibody, mouse IgG2a, V domains shown)
VH: QVQLQQSGAELMKPGASLKISCKATGYTFSSYWIEWVKQRPGHGLQWIGEILPGSGSSNYNEKFKGKATFTADTSSNTAYMQLSSLTSEDSAVYYCARRGSSGSYFAMDYWGQGTSVTVSS
VL: DIQMTQSSSSFSVSLGDRVTITCKASEDIYNRLAWYQQKPGNAPRLLISGATSLETGVPLRFSGSGSGKDYTLSITSLQTEDIATYYCQQYWSTPWTFGGGTKLEIKK
notes: also called Clone 36b
Regarding B1, the binding result is “binds”.
